Data taken from patent publication US20190314526A1.
Read-outs that look alike come from different tables or passages of the source.

Assays:
[1] = biological target: caprine (goat) AAV capsid (caprine rAAV virion) (caprine AAV); assay: cell-based or functional assay
[2] = biological target: primate AAV-8 capsid (rAAV virion) (primate AAV-8); assay: cell-based or functional assay
[3] = biological target: AAV-2 with a wild-type capsid (rAAV-2 virion) (AAV-2) (UniProt P03135); assay: cell-based or functional assay
[4] = biological target: bovine AAV-C1 capsid (AAV-C1-LacZ vector) (bovine AAV); assay: cell-based or functional assay
[5] = biological target: caprine (goat) AAV capsid (caprine rAAV virion) (caprine AAV); assay: cell-based or functional assay; remark: listed apart in the source
[6] = biological target: primate AAV-1 capsid (rAAV virion) (primate AAV-1); assay: cell-based or functional assay
[7] = biological target: primate AAV-3B capsid (rAAV virion) (primate AAV-3B); assay: cell-based or functional assay
[8] = biological target: primate AAV-4 capsid (rAAV virion) (primate AAV-4); assay: cell-based or functional assay
[9] = biological target: primate AAV-5 capsid (rAAV virion) (primate AAV-5); assay: cell-based or functional assay
[10] = biological target: primate AAV-6 capsid (rAAV virion) (primate AAV-6); assay: cell-based or functional assay
[11] = biological target: primate AAV-8 capsid (rAAV virion) (primate AAV-8); assay: cell-based or functional assay; remark: listed apart in the source
[12] = biological target: AAV-2 capsid mutant E394K (rAAV-2 virion) (AAV-2) (UniProt P03135); assay: cell-based or functional assay
[13] = biological target: AAV-2 capsid mutant E411A (rAAV-2 virion) (AAV-2) (UniProt P03135); assay: cell-based or functional assay
[14] = biological target: AAV-2 capsid mutant E437A (rAAV-2 virion) (AAV-2) (UniProt P03135); assay: cell-based or functional assay
[15] = biological target: AAV-2 capsid mutant K395A (rAAV-2 virion) (AAV-2) (UniProt P03135); assay: cell-based or functional assay
[16] = biological target: AAV-2 capsid mutant K407A (rAAV-2 virion) (AAV-2) (UniProt P03135); assay: cell-based or functional assay
[17] = biological target: AAV-2 capsid mutant K569A (rAAV-2 virion) (AAV-2) (UniProt P03135); assay: cell-based or functional assay
[18] = biological target: AAV-2 capsid mutant Q126A (rAAV-2 virion) (AAV-2) (UniProt P03135); assay: cell-based or functional assay
[19] = biological target: AAV-2 capsid mutant Q248A (rAAV-2 virion) (AAV-2) (UniProt P03135); assay: cell-based or functional assay
[20] = biological target: AAV-2 capsid mutant S127A (rAAV-2 virion) (AAV-2) (UniProt P03135); assay: cell-based or functional assay
[21] = biological target: AAV-2 capsid mutant S247A (rAAV-2 virion) (AAV-2) (UniProt P03135); assay: cell-based or functional assay
[22] = biological target: AAV-2 capsid mutant V571A (rAAV-2 virion) (AAV-2) (UniProt P03135); assay: cell-based or functional assay
[23] = biological target: AAV-2 capsid mutant V571K (rAAV-2 virion) (AAV-2) (UniProt P03135); assay: cell-based or functional assay
[24] = biological target: AAV-2 capsid mutant W365A (rAAV-2 virion) (AAV-2) (UniProt P03135); assay: cell-based or functional assay
[25] = biological target: AAV-2 capsid mutant D132N (rAAV-2 virion) (AAV-2) (UniProt P03135); assay: all-A20 ELISA, against wild type
[26] = biological target: AAV-2 capsid mutant D357E (rAAV-2 virion) (AAV-2) (UniProt P03135); assay: all-A20 ELISA, against wild type
[27] = biological target: AAV-2 capsid mutant E393D (rAAV-2 virion) (AAV-2) (UniProt P03135); assay: all-A20 ELISA, against wild type
[28] = biological target: AAV-2 capsid mutant E411A/T413A (rAAV-2 virion) (AAV-2) (UniProt P03135); assay: all-A20 ELISA, against wild type
[29] = biological target: AAV-2 capsid mutant E411A/T413A/G449A/N450A (rAAV-2 virion) (AAV-2) (UniProt P03135); assay: all-A20 ELISA, against wild type
[30] = biological target: AAV-2 capsid mutant G246A (rAAV-2 virion) (AAV-2) (UniProt P03135); assay: all-A20 ELISA, against wild type
[31] = biological target: AAV-2 capsid mutant G449A (rAAV-2 virion) (AAV-2) (UniProt P03135); assay: all-A20 ELISA, against wild type
[32] = biological target: AAV-2 capsid mutant G449A/N568A (rAAV-2 virion) (AAV-2) (UniProt P03135); assay: all-A20 ELISA, against wild type
[33] = biological target: AAV-2 capsid mutant H134Q (rAAV-2 virion) (AAV-2) (UniProt P03135); assay: all-A20 ELISA, against wild type
[34] = biological target: AAV-2 capsid mutant H372K (rAAV-2 virion) (AAV-2) (UniProt P03135); assay: all-A20 ELISA, against wild type
[35] = biological target: AAV-2 capsid mutant H372Q (rAAV-2 virion) (AAV-2) (UniProt P03135); assay: all-A20 ELISA, against wild type
[36] = biological target: AAV-2 capsid mutant N360H (rAAV-2 virion) (AAV-2) (UniProt P03135); assay: all-A20 ELISA, against wild type
[37] = biological target: AAV-2 capsid mutant N568A (rAAV-2 virion) (AAV-2) (UniProt P03135); assay: all-A20 ELISA, against wild type
[38] = biological target: AAV-2 capsid mutant N568A/V571A (rAAV-2 virion) (AAV-2) (UniProt P03135); assay: all-A20 ELISA, against wild type
[39] = biological target: AAV-2 capsid mutant N568K (rAAV-2 virion) (AAV-2) (UniProt P03135); assay: all-A20 ELISA, against wild type
[40] = biological target: AAV-2 capsid mutant R334A (rAAV-2 virion) (AAV-2) (UniProt P03135); assay: all-A20 ELISA, against wild type
[41] = biological target: AAV-2 capsid mutant R334A/G449A (rAAV-2 virion) (AAV-2) (UniProt P03135); assay: all-A20 ELISA, against wild type
[42] = biological target: AAV-2 capsid mutant R334A/G449A/N568A (rAAV-2 virion) (AAV-2) (UniProt P03135); assay: all-A20 ELISA, against wild type
[43] = biological target: AAV-2 capsid mutant R334A/N568A (rAAV-2 virion) (AAV-2) (UniProt P03135); assay: all-A20 ELISA, against wild type
[44] = biological target: AAV-2 capsid mutant S130A (rAAV-2 virion) (AAV-2) (UniProt P03135); assay: all-A20 ELISA, against wild type
[45] = biological target: AAV-2 capsid mutant S130T (rAAV-2 virion) (AAV-2) (UniProt P03135); assay: all-A20 ELISA, against wild type
[46] = biological target: AAV-2 capsid mutant T413K (rAAV-2 virion) (AAV-2) (UniProt P03135); assay: all-A20 ELISA, against wild type
[47] = biological target: AAV-2 capsid mutant V571K (rAAV-2 virion) (AAV-2) (UniProt P03135); assay: all-A20 ELISA, against wild type
[48] = biological target: AAV-2 with a wild-type capsid (rAAV-2 virion) (AAV-2) (UniProt P03135); assay: all-A20 ELISA, virus needed for half maximal OD, against wild type

Substance: purified pooled human IgG IVIG-8 (Panglobulin Lot #1838-00351, ZLB Bioplasma AG)
- Lowest concentration of IVIG showing >50% neutralization of the virus [1]: 40 mg/mL
- Lowest concentration of IVIG showing >50% neutralization of the virus [2]: 10 mg/mL
- % blue cells compared to the control at IVIg 8 0.01 ug/ul [3]: 100%
- % blue cells compared to the control at IVIg 8 0.1 ug/ul [3]: 100%
- % blue cells compared to the control at IVIg 8 10 ug/ul [3]: 2%
- % blue cells compared to the control at IVIg 8 50 ug/ul [3]: 0%
- Lowest concentration of IVIG showing >50% neutralization of the virus [3]: 10 mg/mL
- lowest concentration of IVIG showing more than 50% neutralization [3]: 0.2 mg/mL
- fold more resistant to neutralization by human IVIG than AAV-2 [4]: 16 fold
- lowest concentration of IVIG showing more than 50% neutralization [4]: 3.25 mg/mL
- % of control transduction at IVIg 8 0.1 ug/ul [5]: 120%
- % of control transduction at IVIg 8 1 ug/ul [5]: 93%
- % of control transduction at IVIg 8 10 ug/ul [5]: 80%
- % of control transduction at IVIg 8 40 ug/ul [5]: 14%
- % of control transduction at IVIg 8 50 ug/ul [5]: 8%
- Lowest concentration of IVIG showing >50% neutralization of the virus [5]: 50 mg/mL
- % blue cells compared to the control at IVIg 8 0.01 ug/ul [6]: 100%
- % blue cells compared to the control at IVIg 8 0.1 ug/ul [6]: 86%
- % blue cells compared to the control at IVIg 8 10 ug/ul [6]: 14%
- % blue cells compared to the control at IVIg 8 50 ug/ul [6]: 0%
- Lowest concentration of IVIG showing >50% neutralization of the virus [6]: 10 mg/mL
- % blue cells compared to the control at IVIg 8 0.01 ug/ul [7]: 92%
- % blue cells compared to the control at IVIg 8 1 ug/ul [7]: 45%
- % blue cells compared to the control at IVIg 8 10 ug/ul [7]: 0%
- % blue cells compared to the control at IVIg 8 50 ug/ul [7]: 0%
- Lowest concentration of IVIG showing >50% neutralization of the virus [7]: 1 mg/mL
- % blue cells compared to the control at IVIg 8 0.01 ug/ul [8]: 100%
- % blue cells compared to the control at IVIg 8 0.1 ug/ul [8]: 100%
- % blue cells compared to the control at IVIg 8 1 ug/ul [8]: 100%
- % blue cells compared to the control at IVIg 8 50 ug/ul [8]: 49%
- Lowest concentration of IVIG showing >50% neutralization of the virus [8]: 50 mg/mL
- % blue cells compared to the control at IVIg 8 0.1 ug/ul [9]: 17%
- % blue cells compared to the control at IVIg 8 1 ug/ul [9]: 1%
- % blue cells compared to the control at IVIg 8 10 ug/ul [9]: 1%
- % blue cells compared to the control at IVIg 8 50 ug/ul [9]: 0%
- Lowest concentration of IVIG showing >50% neutralization of the virus [9]: 0.1 mg/mL
- % blue cells compared to the control at IVIg 8 0.01 ug/ul [10]: 100%
- % blue cells compared to the control at IVIg 8 0.1 ug/ul [10]: 81%
- % blue cells compared to the control at IVIg 8 10 ug/ul [10]: 14%
- % blue cells compared to the control at IVIg 8 50 ug/ul [10]: 0%
- Lowest concentration of IVIG showing >50% neutralization of the virus [10]: 10 mg/mL
- % blue cells compared to the control at IVIg 8 0.01 ug/ul [11]: 90%
- % blue cells compared to the control at IVIg 8 0.1 ug/ul [11]: 88%
- % blue cells compared to the control at IVIg 8 1 ug/ul [11]: 77%
- % blue cells compared to the control at IVIg 8 50 ug/ul [11]: 0%
- % of control transduction at IVIg 8 0.1 ug/ul [11]: 105%
- % of control transduction at IVIg 8 10 ug/ul [11]: 44%
- % of control transduction at IVIg 8 20 ug/ul [11]: 11%
- % of control transduction at IVIg 8 40 ug/ul [11]: 0%
- % of control transduction at IVIg 8 50 ug/ul [11]: 0%
- Lowest concentration of IVIG showing >50% neutralization of the virus [11]: 50 mg/mL

Substance: murine monoclonal antibody A20 (protein A-purified anti-AAV-2 mouse monoclonal antibody)
- Fold decrease in A20 titer [12]: 0.9 fold
- Fold decrease in A20 titer [13]: 2.7 fold
- Fold decrease in A20 titer [14]: 0.8 fold
- Fold decrease in A20 titer [15]: 0.9 fold
- Fold decrease in A20 titer [16]: 1.6 fold
- Fold decrease in A20 titer [17]: 1.7 fold
- Fold decrease in neutralizing titer [18]: 2.5 fold
- neutralizing titer of A20 (reciprocal dilution) [18]: 203
- Fold decrease in neutralizing titer [19]: 5.7 fold
- neutralizing titer of A20 (reciprocal dilution) [19]: 89
- Fold decrease in neutralizing titer [20]: 57 fold
- neutralizing titer of A20 (reciprocal dilution) [20]: 9
- Fold decrease in neutralizing titer [21]: 2.8 fold
- neutralizing titer of A20 (reciprocal dilution) [21]: 180
- Fold decrease in A20 titer [22]: 1.4 fold
- Fold decrease in A20 titer [23]: 217 fold
- Fold decrease in A20 titer [24]: 0.5 fold
- % neutralized at dilutions of A20 greater than 1:1000 [3]: < 3%
- Fold decrease in neutralizing titer [3]: 1 fold
- neutralizing titer of A20 (reciprocal dilution) [3]: 509
- Fold decrease in binding of murine A20 [25]: 1 fold
- Fold decrease in binding of murine A20 [26]: 1 fold
- Fold decrease in binding of murine A20 [27]: 1 fold
- Fold decrease in binding of murine A20 [28]: 1 fold
- Fold decrease in binding of murine A20 [29]: 1 fold
- Fold decrease in binding of murine A20 [30]: 1 fold
- Fold decrease in binding of murine A20 [31]: 1 fold
- Fold decrease in binding of murine A20 [32]: 1 fold
- Fold decrease in binding of murine A20 [33]: 1 fold
- Fold decrease in binding of murine A20 [34]: 1 fold
- Fold decrease in binding of murine A20 [35]: 1 fold
- Fold decrease in binding of murine A20 [36]: 1 fold
- Fold decrease in binding of murine A20 [37]: 1 fold
- Fold decrease in binding of murine A20 [38]: 1 fold
- Fold decrease in binding of murine A20 [39]: 1 fold
- Fold decrease in binding of murine A20 [40]: 1 fold
- Fold decrease in binding of murine A20 [41]: 1 fold
- Fold decrease in binding of murine A20 [42]: 1 fold
- Fold decrease in binding of murine A20 [43]: 1 fold
- Fold decrease in binding of murine A20 [44]: 1 fold
- Fold decrease in binding of murine A20 [45]: 1 fold
- Fold decrease in binding of murine A20 [46]: 1 fold
- Fold decrease in binding of murine A20 [47]: 10 fold
- Fold decrease in binding of murine A20 [48]: 1 fold
